# Test results from publication PMC6780499, “Characterization, Recombinant Production and Structure-Function Analysis of NvCI, A Picomolar Metallocarboxypeptidase Inhibitor from the Marine Snail Nerita versicolor” (Marine Drugs, 2019).
# Read-outs that look alike come from different tables or passages of the source. No end group written: not given here.
# B1: rACI: recombinant carboxypeptidase inhibitor from the intestinal parasite Ascaris suum (protein)
# chain: VRKCLSDTDCTNGEKCVQKNKICSTIVEIQRCEKEHFTIPCKSNNDCQVWAHEKICNKGCCWDLL
# modifications: intrachain disulphides
# B2: rLCI: recombinant carboxypeptidase inhibitor from the medical leech Hirudo medicinalis (protein, UniProt P81511 16-81, looked up)
# Metallocarboxypeptidase …: SHTPDESFLCYQPDQVCCFICRGAAPLPSEGECNPHPTAPWCREGAVEWVPYSTGQCRTTCIPYVE
# B3: rhuman latexin: recombinant human latexin, larger (19–22 kDa) endogenous protein inhibitor of carboxypeptidases (protein, UniProt Q9BS40 1-222, looked up)
# Latexin: MEIPPTNYPASRAALVAQNYINYQQGTPHRVFEVQKVKQASMEDIPGRGHKYHLKFAVEEIIQKQVKVNCTAEVLYPSTGQETAPEVNFTFEGETGKNPDEEDNTFYQRLKSMKEPLEAQNIPDNFGNVSPEMTLVLHLAWVACGYIIWQNSTEDTWYKMVKIQTVKQVQRNDDFIELDYTILLHNIASQEIIPWQMQVLWHPQYGTKVKHNSRLPKEVQLE
# Tests used:
# bCPA1 [1] = biological target: T1, bCPA1 (Bos taurus, UniProt P00730); assay: Ki determination, tight-binding inhibition of metallocarboxypeptidase; type: biochemical, bovine; conditions: natural isoforms; apparent Ki, without correction by competing assays; read-out: derived Ki towards bCPA (apparent Ki values)
# T1 sequence (P00730 111-419): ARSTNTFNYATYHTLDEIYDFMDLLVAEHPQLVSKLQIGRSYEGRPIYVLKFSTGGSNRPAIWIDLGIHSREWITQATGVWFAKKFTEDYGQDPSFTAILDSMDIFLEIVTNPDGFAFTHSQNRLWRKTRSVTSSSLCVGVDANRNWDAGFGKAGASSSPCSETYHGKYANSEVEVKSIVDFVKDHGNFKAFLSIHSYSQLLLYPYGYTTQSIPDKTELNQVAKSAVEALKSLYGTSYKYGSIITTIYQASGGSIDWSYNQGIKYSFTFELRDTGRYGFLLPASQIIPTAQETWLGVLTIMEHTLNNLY
# Procedure: Inhibitory activities against CPA- and CPB-type forms (bovine and human variants of CPA1, CPA2, CPA4, CPB1, and TAFI) were assayed for all extracts, subject to the experimental conditions that enzyme (E), substrate (S) and inhibitor (I) concentrations as well as the [I]/[E] ratio and preincubation time followed the requirements for tight-binding inhibitor assays. Similar approaches were followed to measure the activities of proteases of different catalytic types, like pepsin, papain, trypsin and subtilisin [45, 46, 47, 48]. All assays were performed in triplicate at 25 °C in a multiplexed manner. For 96-well assays an iEMS spectrophotometer reader/dispenser FM (Labsystems, Finland) was used with a final reaction volume of 250 μL. For cuvette assays, a Cary 400 Bio spectrophotometer (Varian Inc., Palo Alto, CA, USA) spectrophotometer was used with a final reaction volume of 1 ml. The reactions were followed at 5 s intervals for 5 min and recorded as initial velocities. In the protease inhibition assays, mixtures of activity buffer, biological sample and enzyme were preincubated at 25 °C for 10min, before substrate addition. The assay conditions were as follows: for CPA-like enzymes, 7.0nM CPA, 0.1mM AAFP substrate in 20mM Tris-HCl pH 7.5, 500mMNaCl, 1% v/v dimethyl sulfoxide (DMSO), 0.05% w/v BRIJ-35 was used. For CPB-like enzymes, CPB 3.0nM CPB, 0.1mM AAFA substrate and activity buffer of 20 mM Tris-HCl pH [50].
# The Ki values of natural and recombinant NvCI against bCPA1, hCPA1, hCPA2, rat CPA3, hCPA4, hCPB1, bTAFI, hTAFI, hCPD and hCPZ were determined by measuring the enzymatic residual activity (Vi/V0 = a) at different inhibitor concentrations and using a fixed enzyme and substrate concentrations as described above, where vi and v0 are the fraction of enzymatic activity in the presence and absence of inhibitor, respectively, in terms of initial velocities. The determination of Ki values was carried out on equilibrium conditions ([E0]/Ki ≤ 10), using a previously determined preincubation time of 15 min, required to establish enzyme-inhibitor equilibrium. Working temperature was 37 °C. The best estimates of Ki values were obtained by fitting the experimental data to the equation for tight-binding inhibitors by non-linear regression using the GraphPad Prisma 5 software (GraphPad Software, Inc., San Diego, CA, USA) at p < 0.05. The real Ki values against each of these A/B-type MCPs were calculated according to the equation described by Morrison and Copeland [19, 20].
# HepG2 cells = assay: Cellular uptake by confocal laser scanning microscopy; type: cell-based, human; conditions: HepG2, 20 µg/ml, 4 h at 37 °C, CLSM, LysoTracker and Hoechst staining
# Procedure: Recombinant NvCI was fluorescently labelled with an Alexa Fluor 488 Protein Labeling Kit (Molecular Probes, Eugene, OR, USA). HepG2 cells were seeded in a 35 mm glass-bottom culture dish (MatTek Corporation, Ashland, MA, USA) at a density of 4 × 10^5 cells/well and incubated for 24 h. The cells were incubated with 20 µg/ml Alexa 488-NvCI for 4 h at 37 °C. Prior to imaging, lysosomes and nuclei were stained with Lysotracker Red and Hoechst (Invitrogen, Carlsbard, CA, USA), respectively, for 90 or 10 min.
# hCPA2 = biological target: T2, hCPA2 (Homo sapiens, UniProt P48052); conditions: cited from earlier work
# T2 sequence (P48052 115-419): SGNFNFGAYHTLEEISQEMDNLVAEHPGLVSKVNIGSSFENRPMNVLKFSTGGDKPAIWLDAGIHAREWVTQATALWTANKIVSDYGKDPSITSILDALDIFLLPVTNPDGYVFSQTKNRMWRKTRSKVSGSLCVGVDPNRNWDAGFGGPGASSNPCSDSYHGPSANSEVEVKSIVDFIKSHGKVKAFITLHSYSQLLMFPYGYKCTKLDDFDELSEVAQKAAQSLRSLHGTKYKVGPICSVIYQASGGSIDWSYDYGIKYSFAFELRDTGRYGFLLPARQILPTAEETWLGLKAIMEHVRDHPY
# Text: (§1) Table 2 Ki values of various proteinaceous metallocarboxypeptidases (MCPs) inhibitors. | column: Ki (nM) / rPCI (a); Ki (nM) / rTCI (b); Ki (nM) / rLCI (c); Ki (nM) / rACI (d); Ki (nM) / rhuman latexin (e)
# hCPA1 = biological target: T3, hCPA1 (Homo sapiens, UniProt P15085); conditions: cited from earlier work
# T3 sequence (P15085 111-419): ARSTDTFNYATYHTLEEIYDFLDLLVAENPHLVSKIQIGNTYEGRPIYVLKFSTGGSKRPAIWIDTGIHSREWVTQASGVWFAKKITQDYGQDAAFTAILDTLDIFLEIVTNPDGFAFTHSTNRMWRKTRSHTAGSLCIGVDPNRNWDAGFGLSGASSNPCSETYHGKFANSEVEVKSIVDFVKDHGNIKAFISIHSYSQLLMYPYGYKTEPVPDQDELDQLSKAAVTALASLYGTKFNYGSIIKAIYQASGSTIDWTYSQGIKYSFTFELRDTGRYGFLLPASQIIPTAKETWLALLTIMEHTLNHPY
# Text: as §1
# bCPA1 [2] = biological target: T1, bCPA1; conditions: cited from earlier work
# Text: as §1
# hCPA4 = biological target: T4, hCPA4 (Homo sapiens, UniProt Q9UI42); conditions: cited from earlier work
# T4 sequence (Q9UI42 114-421): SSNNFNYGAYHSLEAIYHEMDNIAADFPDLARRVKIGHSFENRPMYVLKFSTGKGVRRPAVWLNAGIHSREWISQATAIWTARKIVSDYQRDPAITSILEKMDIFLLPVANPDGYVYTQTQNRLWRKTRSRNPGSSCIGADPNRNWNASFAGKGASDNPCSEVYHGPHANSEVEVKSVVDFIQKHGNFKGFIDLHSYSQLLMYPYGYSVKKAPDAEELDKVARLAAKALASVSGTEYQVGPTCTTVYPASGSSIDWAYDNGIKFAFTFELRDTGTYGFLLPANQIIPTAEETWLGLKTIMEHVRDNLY
# Text: as §1
# hTAFI = biological target: T5, hTAFI (Homo sapiens, UniProt Q96IY4); conditions: cited from earlier work
# T5 sequence (Q96IY4 115-423): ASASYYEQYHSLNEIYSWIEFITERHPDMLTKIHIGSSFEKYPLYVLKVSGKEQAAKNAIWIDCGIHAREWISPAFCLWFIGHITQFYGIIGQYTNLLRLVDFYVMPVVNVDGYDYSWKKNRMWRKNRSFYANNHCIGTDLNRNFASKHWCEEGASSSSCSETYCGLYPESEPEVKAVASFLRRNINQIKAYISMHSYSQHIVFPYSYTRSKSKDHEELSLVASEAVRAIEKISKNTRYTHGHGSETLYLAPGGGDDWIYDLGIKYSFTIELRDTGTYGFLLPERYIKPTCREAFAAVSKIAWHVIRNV
# Text: Table 2 Ki values of various proteinaceous metallocarboxypeptidases (MCPs) inhibitors. | column: Ki (nM) / rPCI (a); Ki (nM) / rTCI (b); Ki (nM) / rACI (d); Ki (nM) / rhuman latexin (e)
# hCPB = biological target: T6, hCPB (Homo sapiens, UniProt P15086); conditions: cited from earlier work
# T6 sequence (P15086 111-417): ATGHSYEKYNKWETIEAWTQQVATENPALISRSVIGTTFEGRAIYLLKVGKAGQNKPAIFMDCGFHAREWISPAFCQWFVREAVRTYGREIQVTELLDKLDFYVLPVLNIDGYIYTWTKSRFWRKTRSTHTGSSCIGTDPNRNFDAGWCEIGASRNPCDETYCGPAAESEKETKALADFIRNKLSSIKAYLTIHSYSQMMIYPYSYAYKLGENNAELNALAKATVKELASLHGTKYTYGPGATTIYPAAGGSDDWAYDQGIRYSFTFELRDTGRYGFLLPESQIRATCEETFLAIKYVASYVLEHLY
# Text: Table 2 Ki values of various proteinaceous metallocarboxypeptidases (MCPs) inhibitors. | column: Ki (nM) / rPCI (a); Ki (nM) / rTCI (b); Ki (nM) / rLCI (c); Ki (nM) / rhuman latexin (e)
# pCPB = biological target: T7, pCPB (Sus scrofa, UniProt P09955); conditions: ref Arolas et al., 2004 [21]; cited from earlier work
# T7 sequence (P09955 111-416): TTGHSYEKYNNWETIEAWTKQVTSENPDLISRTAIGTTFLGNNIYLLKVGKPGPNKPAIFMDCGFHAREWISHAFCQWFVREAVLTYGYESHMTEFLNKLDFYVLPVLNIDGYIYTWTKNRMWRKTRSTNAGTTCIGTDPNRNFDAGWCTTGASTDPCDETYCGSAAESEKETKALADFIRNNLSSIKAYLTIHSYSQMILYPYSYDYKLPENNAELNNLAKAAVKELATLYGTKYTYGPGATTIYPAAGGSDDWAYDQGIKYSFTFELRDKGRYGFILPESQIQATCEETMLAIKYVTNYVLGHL
# Text: Table 2 Ki values of various proteinaceous metallocarboxypeptidases (MCPs) inhibitors. | column: Ki (nM) / rPCI (a); Ki (nM) / rTCI (b); Ki (nM) / rLCI (c)
molecule,measurement,setting,value
"NvCIc: minor natural isoform, lacks the N-terminal Phe as compared to NvCIa (HVPDDRPCINPGRCPLVPDATCTFVCKAADNDFGYECQHVWTFEGQRVGCYA; three intrachain disulphides)",Ki,bCPA1 [1],0.049 ± 0.002 nM
"NvCId: minor natural isoform, lacks the N-terminal Phe as compared to NvCIb (HVPDDRPCIKPGRCPLVPDATCTFVCKAADNDFGYECQHVWTFEGQRVGCYA; three intrachain disulphides)",Ki,bCPA1 [1],0.022 ± 0.001 nM
NvCIb: natural isoform of NvCI with N→K substitution at the 11th residue (FHVPDDRPCIKPGRCPLVPDATCTFVCKAADNDFGYECQHVWTFEGQRVGCYA; three intrachain disulphides),Ki,bCPA1 [1],0.038 ± 0.002 nM
"Alexa488-labelled NvCI: recombinant NvCI fluorescently labelled with an Alexa Fluor 488 Protein Labeling Kit (FHVPDDRPCINPGRCPLVPDATCTFVCKAADNDFGYECQHVWTFEGQRVGCYA; ends and bridges not checked; also: Alexa Fluor 488 label; UniProt P86912 1-53, looked up)",cellular uptake / internalization,HepG2 cells,internalized NvCI was distributed through the cytoplasm
B1,Ki,"hCPA2; ref Sanglas et al., 2009 [10]",2.5 ± 0.2 nM
same,Ki,"hCPA1; ref Sanglas et al., 2009 [10]",1.6 ± 0.2 nM
same,Ki,"bCPA1 [2]; ref Sanglas et al., 2009 [10]",2.4 ± 0.3 nM
same,Ki,"hCPA4; ref Sanglas et al., 2009 [10]",23.9 ± 3.1 nM
same,Ki,"hTAFI; ref Sanglas et al., 2009 [10]",42 ± 1.7 nM
B2,Ki,"hCPB; ref Arolas et al., 2004 [21]",1.2 ± 0.3 nM
same,Ki,"hCPA2; ref Arolas et al., 2004 [21]",4.5 ± 0.6 nM
same,Ki,"hCPA1; ref Arolas et al., 2004 [21]",1.3 ± 0.4 nM
same,Ki,"bCPA1 [2]; ref Arolas et al., 2004 [21]",1.1 ± 0.2 nM
same,Ki,"hCPA4; ref Tanco et al., 2010 [22]",7.3 ± 0.4 nM
same,Ki,pCPB,2.4 ± 0.5 nM
B3,Ki,"hCPB; ref Pallarès et al., 2005 [15]",1.1 ± 0.1 nM
same,Ki,"hCPA2; ref Pallarès et al., 2005 [15]",3.5 ± 0.3 nM
same,Ki,"hCPA1; ref Pallarès et al., 2005 [15]",1.6 ± 0.2 nM
same,Ki,"bCPA1 [2]; ref Pallarès et al., 2005 [15]",1.2 ± 0.2 nM
same,Ki,"hCPA4; ref Pallarès et al., 2005 [15]",3 ± 0.3 nM
same,Ki,"hTAFI; ref Pallarès et al., 2005 [15]",1.8 ± 0.3 nM
